Reference: US20240209070A1, “COTH3 BINDING AGENTS AND USES THEREOF” (priority 2021, published 2024)

Legend:
Mucorales CotH3 = Mucorales CotH3 (Rhizopus delemar, UniProt I1CFE1)
R. delemar 99-880 = assay: Neutropenic mouse model of mucormycosis, R. delemar 99-880 infection; type: in vivo, Rhizopus delemar; conditions: single dose of 30 μg 24 h after infection, lungs harvested day 4
Description: Mouse models: Neutropenic mice model used male ICR mice (20 to 23 g) obtained from Envigo (NJ). Mice were injected with cyclophosphamide (200 mg/kg, given intraperitoneally) and cortisone acetate (500 mg/kg, given subcutaneously) on days −2, +3, and +8 relative to infection^(1).
Antibody treatment with a single dose of 30 μg humanized antibody, or isotype human IgG started 24 or 48 hours after infection and was administered by intraperitoneal injection. Time to moribundity (equated with survival) served as the primary endpoint. As a secondary endpoint and in some experiments, fungal burden in the lungs and brains (primary and secondary target organs) was determined 96 hours after infection by quantitative PCR assay, as we previously described^(3). Values were expressed as log10 spore equivalent per gram of tissue. Histopathological examination was carried out on sections of the harvested organs after fixing in 10% zinc formalin. The fixed organs were embedded in paraffin, and […] sections were stained with hematoxylin and eosin.

CotH3 antigen = CotH3 antigen (Rhizopus delemar, UniProt I1CFE1); conditions: Protein G sensor, CotH3 6.25-400 nM, 25° C.
Description: The purified preparations were then used to assess the affinity of each clone for the CotH3 antigen by biolayer interferometry using Gator system (ProbeLife). Under the assumption that the CotH3 antigen provided by Vitalex behaves as a normal soluble monomeric protein, a Protein G coated sensor probe (ProbeLife, catalog #160006) was loaded with the bivalent antibody test clone at a concentration of 5 μg/ml in ProbeLife's kinetic buffer (PBS pH 7.4, 0.02% BSA, 0.002% Tween-20, 0.005% NaN3). A serial dilution of CotH3 antigen of 400, 200, 100, 50, 25, 12.5, 6.25 nM and buffer only (0 nM) was added to the sensors. All reactions were performed at 25° C. The values are chosen when three or more concentrations yield the same kinetic values. The original murine mAb was provided by Vitalex as the reference.

Mucorales CotH2 = molecular target: T1, Mucorales CotH2 (Rhizopus delemar, UniProt I1C4E4)
T1 sequence (I1C4E4 whole entry, looked up): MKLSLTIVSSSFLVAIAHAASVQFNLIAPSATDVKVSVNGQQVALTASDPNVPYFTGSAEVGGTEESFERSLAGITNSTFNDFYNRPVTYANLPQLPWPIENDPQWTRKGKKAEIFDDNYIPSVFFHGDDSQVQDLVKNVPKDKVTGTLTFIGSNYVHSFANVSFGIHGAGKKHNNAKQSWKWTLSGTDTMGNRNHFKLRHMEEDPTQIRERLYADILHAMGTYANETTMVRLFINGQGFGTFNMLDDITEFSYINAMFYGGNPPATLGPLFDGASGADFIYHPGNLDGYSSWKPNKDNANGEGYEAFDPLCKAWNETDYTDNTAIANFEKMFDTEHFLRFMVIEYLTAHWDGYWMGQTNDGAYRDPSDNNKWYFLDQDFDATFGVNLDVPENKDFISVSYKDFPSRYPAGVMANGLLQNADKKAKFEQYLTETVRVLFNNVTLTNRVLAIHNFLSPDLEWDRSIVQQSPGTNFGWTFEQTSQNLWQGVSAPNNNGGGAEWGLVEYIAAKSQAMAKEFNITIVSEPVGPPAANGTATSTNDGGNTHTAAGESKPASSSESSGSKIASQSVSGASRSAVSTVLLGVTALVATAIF

[1] = intravenous, single dose 10 μg, 30 μg or 100 μg, 1-168 hours
Description: Pharmacokinetics study: Neutropenic mice were infected intratracheally with 25 μl of PBS containing 2.5×10^5 spores of Rhizopus delemear. […] After infection, mice were treated daily with 5 mg in 0.2 ml of irrigation water with ceftazidime subcutaneously to prevent bacterial superinfection. […] Mouse serum samples were collected at the time points: 1 hour, 2 hours, 4 hours, 8 hours, 24 hours, 72 hours, 120 hours, and 168 hours after the antibody injection. The antibody concentration in the mouse serum samples was detected by ELISA, with Flag-CotH3 as the coating protein, and anti-human-IgG-HRP as the secondary antibody.

Chain of CotH3 antigen (I1CFE1 18-601): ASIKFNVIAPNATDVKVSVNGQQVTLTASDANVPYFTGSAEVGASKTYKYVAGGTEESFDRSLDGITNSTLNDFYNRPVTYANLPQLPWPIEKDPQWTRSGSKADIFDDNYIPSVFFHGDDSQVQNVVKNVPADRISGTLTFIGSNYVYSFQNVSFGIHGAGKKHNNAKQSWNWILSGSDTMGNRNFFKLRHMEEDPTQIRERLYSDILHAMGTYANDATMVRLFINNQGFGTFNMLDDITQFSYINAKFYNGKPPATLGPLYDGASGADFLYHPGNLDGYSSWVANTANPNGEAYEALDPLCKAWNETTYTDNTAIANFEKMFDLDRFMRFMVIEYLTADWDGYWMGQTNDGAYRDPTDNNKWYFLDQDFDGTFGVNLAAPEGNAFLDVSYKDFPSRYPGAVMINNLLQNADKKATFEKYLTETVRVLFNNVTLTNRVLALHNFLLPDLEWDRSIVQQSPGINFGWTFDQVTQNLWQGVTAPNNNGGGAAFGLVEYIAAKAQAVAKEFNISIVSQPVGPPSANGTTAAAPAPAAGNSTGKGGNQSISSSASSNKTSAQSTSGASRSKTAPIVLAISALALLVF
Chain of Mucorales CotH3 (I1CFE1 18-601): as above

B1: mAb: mouse monoclonal IgG1 kappa anti-CotH3 antibody, clone C2, raised against peptide SEQ ID NO:34 (antibody, V domains shown)
VH: DLQLQESGPSLVKPSQTLSLTCSVTGDSITSGYWNWIRKFPGNKLEHMGYIKYSGRTFYNPSLKSRVSITRDTSKNQYYLQLNSVTSEDTATYYCASRGYWGQGTTLTVSS
VL: DVVMTQTPLSLSVTIGQPASISCKSSQSLLYSNGKTYLNWLQQRPGQAPKLLMFQVSKPGIPDRFSGSGSETDFTLKISRVEAEDLGVYYCLQGTYFPHTFGAGTKVEIK
- specific binding to CotH3 (Mucorales CotH3): bound specifically
- lung histology (R. delemar 99-880): no fungal elements and normal lung architecture
- Koff (S^−1) (CotH3 antigen): 1.41E−3 S^−1
- Kon (CotH3 antigen): 23900 M⁻¹ s⁻¹
- Rmax (CotH3 antigen): 0.69
- specific binding to CotH2 (Mucorales CotH2): bound specifically
- pharmacokinetics (serum antibody concentration) [1]: Dose dependent pharmacokinetics
